This note sets out measurements from patent publication US20230331821A1 (VIR BIOTECHNOLOGY, published 2023).

Read-outs that look alike come from different tables or passages of the source.

For experiment [1], the target named is T1, SARS-CoV-2 Spike (S) protein, strain BetaCoV/Wuhan-Hu-1/2019, full length (SARS-CoV-2 Wuhan-Hu-1, UniProt P0DTC2 14-1273).
Experiment [2] concerns the target T2, His-tagged RBD of SARS-CoV-2 (SARS-CoV-2 BetaCoV/Wuhan-Hu-1/2019, UniProt P0DTC2 331-550).
Experiment [3] addresses T3, His-tagged RBD of SARS-CoV-1 (SARS-CoV-1, UniProt P59594 306-527).
Experiment [4] has as its target T1, SARS-CoV-2 Spike (S) protein, strain …. Nature of the experiment: cell-based or functional assay.
The target is the same in experiment [5]. Nature of the experiment: flow cytometry, ExpiCHO cells expressing SARS-CoV-2 S; % positive cells. (In general: In flow cytometry, cells or beads pass a laser one at a time.)
Experiment [6] deals with SARS-CoV-1 Spike (S) protein, strain SARS, on ExpiCHO cells (SARS-CoV (SARS-CoV-1), strain SARS, UniProt P59594 14-1255). Put plainly: flow cytometry, ExpiCHO cells expressing SARS-CoV-1 S; % positive cells.
For experiment [7], the target named is T4, SARS-CoV-1 RBD (Sino Biological) (SARS-CoV-1, UniProt P59594 306-527). Put plainly: ELISA, antigen coated on the plate, OD 405 nm.
The target of experiment [8] is T2, His-tagged RBD of SARS-CoV-2. The source holds these as a separate data set.
Experiment [9] addresses T3, His-tagged RBD of SARS-CoV-1. The source holds these as a separate data set.
Experiment [10] deals with T5, SARS-CoV-2 RBD (produced in house in Expi-CHO cells; residues 331-550 of spike) (SARS-CoV-2 BetaCoV/Wuhan-Hu-1/2019, UniProt P0DTC2 331-550). Nature of the experiment: BLI (Octet), antibody on protein A sensors, RBD in solution, global fit.
The target in experiment [11] is T4, SARS-CoV-1 RBD (Sino Biological). The experiment is described as above.
Experiment [12] has the same target. Put plainly: ELISA, antigen coated on the plate, OD 405 nm. The source holds these as a separate data set.
The target of experiment [13] is T2, His-tagged RBD of SARS-CoV-2. The source holds these as a separate data set.
Experiment [14] addresses T3, His-tagged RBD of SARS-CoV-1. The source holds these as a separate data set.
Experiment [15] concerns the target T1, SARS-CoV-2 Spike (S) protein, strain …. Nature of the experiment: cell-based or functional assay. This is another data set of the same source.
Experiment [16] addresses T5, SARS-CoV-2 RBD (produced in house in …). Put plainly: BLI (Octet), antibody on protein A sensors, RBD in solution, global fit. This is another data set of the same source. A general note: In BLI a coated tip is dipped into the sample, and binding shifts an interference pattern.
Experiment [17] deals with T4, SARS-CoV-1 RBD (Sino Biological). Described as above. The source holds these as a separate data set.

B1: S315 recombinant IgG1 (antibody, V domains shown)
VH: EVQLVESGGGLVQPGGSLRLSCAASGFTFSNYWMTWVRQAPGKGLEWVANIKQDGSEKYYVDSVKGRFTISRDNAKNSLYLQMNSLRAEDTAVYYCARDLWWNDQAHYYGMDVWGQGTTVTVSS
VL: SYELTQPPSVSVSPGQTARITCSGDAFPNQYAYWYQQKPGQAPVMLIYKDSERPSGIPERFFGSSSGTTVTLTIRGVQAEDEADYYCQSADSSGTVFGGGTKLTVL
In general, EC50 refers to the concentration giving half of the maximal effect. A high value points to weaker potency. The term Kd denotes the free concentration of one partner at which half of the binding sites on the other are occupied at equilibrium, for simple one-to-one binding. High values mean weaker binding, low ones tighter binding. As usually defined, the EC50 (read off the curve) is the concentration giving half of the maximal effect. As for B1, it took 0.343 mg/L to reach a half-maximal effect in [1] (EC50). The equilibrium dissociation constant (Kd) in experiment [2] is 0.811 nM; in experiment [3] it was less than 0.001 nM. Moreover, the “IC50, neutralization of SARS-CoV-2pp on DBT-ACE2 cells” value in experiment [4] was 25.1 mg/L. Also, the “EC50 (read off the curve)” value was approximately 0.3 mg/L in experiment [5] and approximately 0.007 mg/L in experiment [6].

B2: S306-rIgG1-LS (antibody, V domains shown)
VH: QVQLVQSGAEVKKPGASVKVSCKASTYTFTSFGISWVRQAPGQGLEWMGWITTYSGDTNYAQKFQGRVTMTTDTSTNTAYMELRSLRSDDTAVYYCASDYFDSSGYYHSFDYWGQGTLVTVSS
VL: EIVLTQSPDTLSLSPGERATLSCRASQSVSSYLAWYQQRPGQAPRLLIYDASKRATGIPARFSGSGSGTDFTLTISSLEPEDFAVYYCQQRSNWPPGCSFGQGTKVEIK
As for B2, the binding result in experiment [7] is given as “no binding (tested: 5 µg/ml)”.

B3: S303 rIgG1 (antibody, V domains shown)
VH: EVQLVESGGGLVKPGGSLRLSCAASGFTFLTYSMNWVRQTPGKRLQWVSAISGSGGATYYADSVKGRFTISRDNSKNTLYLQMNTVTADDTAIYFCARERDDIFPMGLNAFDIWGQGAMVIVSS
VL: DIQMTQSPSTLSASVGDRVTITCRASQSISNWLAWYQQKPGKAPKLLIYKASSLESGVPSRFSGSGSGTEFTLTISSLQPDDSATYYCQQYDTYSWTFGQGTKVEIK
In experiment [1], B3 came in with an EC50 of 0.383 mg/L. In addition, the Kd is 23.6 nM in experiment [8], less than 0.001 nM in [9], 23.6 nM in experiment [10] and less than 0.001 nM in experiment [11]. In addition, the results for the “EC50 (read off the curve)” value in experiment [5] and in experiment [6] were approximately 0.4 mg/L and approximately 0.001 mg/L, respectively.

B4: S310-rIgG1-LS (antibody, V domains shown)
VH: QVQLVQSGAELKKPGSSVKVSCKASGGTFNSYSFNWVRQAPGQGLEWLGGIIPVLGTSNYAQKFQGRVAVTADEFTTTAYMELSSLRSEDTAVYYCATRTYDSSGYRPYYYGLDVWGQGTPVTVSS
VL: QSALTQPASVSGSPGQSITISCTGTSSDVGSYNLVSWYQQRPGKAPELMIYEVTKRPSGLSNRFSGSKSGNTASLTISGLQAEDEADYYCCSYAGSDTVIFGGGTKVTVL
B4: in experiment [12], the binding result is “no binding (tested: 5 µg/ml)”.

B5: S304 rIgG1 (antibody, V domains shown)
VH: EVQLVESGGGLVQPGGSLRLSCAASGFTFSSYDMHWVRQTTGKGLEWVSTIGTAGDTYYPDSVKGRFTISREDAKNSLYLQMNSLRAGDTAVYYCARGDSSGYYYYFDYWGQGTLLTVSS
VL: DIQMTQSPSSLSAAVGDRVTITCRASQSIGSYLNWYQQKPGKAPKLLIYAASSLQSGVPSRFSGSGSGTDFTLTISSLQPEDFAIYYCQQSYVSPTYTFGPGTKVDIK
With B5, in experiment [1], the EC50 was 0.142 mg/L. In addition, the equilibrium dissociation constant (Kd) in experiment [13] is 4.58 nM; in experiment [14], 0.869 nM; in [16], 4.58 nM; in experiment [17] it was 0.869 nM. In addition, in experiment [15], the “IC50, neutralization of SARS-CoV-2pp on DBT-ACE2 cells” value is approximately 16.9 mg/L. For the same molecule, the figures for the “EC50 (read off the curve)” value in [5] and in experiment [6] were approximately 0.1 mg/L and approximately 0.01 mg/L, respectively.
